The results in this text go back to patent US20050112126A1 (Genentech, published 2005).

Changes are numbered by the printed parent chain. In names and notes the source's numbering stands.

The experiment concerns the target T1, VEGF (human, UniProt P15692-4 27-191, limits assumed).
T1 construct: Biotinylated in the KDR-IgG ELISA, amine-coupled to the chip in BIAcore; also called biotinylated VEGF; vascular endothelial growth factor
Description: competitive phage-ELISA, relative to pY0192. As to the method: In such an assay, phages were first serially diluted to determine a fractional saturation titer which was then held constant and used to incubate with varying concentrations of VEGF (starting at 200 nM to 0 nM) in solution. The mixture was then transferred onto plate precoated with VEGF (2 μg/mL) and blocked with 5% instant milk, and allowed to equilibrate for 1 hour at room temperature. Thereafter, the phage solution was removed and the remaining bound phages were detected with a solution of rabbit anti-phage antibody mixed with goat anti-rabbit conjugate of horse radish peroxidase. After an hour incubation at room temperature, the plate was developed with a chromogenic substrate, o-phenylenediamine (Sigma). The reaction was stopped with addition of ½ volume of 2.5 M H₂SO₄. Optical density at 492 nm was measured on a spectrophotometric plate reader.
IC50's were determined in a competitive phage-ELISA assay.

T1 sequence (P15692 other isoform, or with tags, fused parts or gaps limits assumed): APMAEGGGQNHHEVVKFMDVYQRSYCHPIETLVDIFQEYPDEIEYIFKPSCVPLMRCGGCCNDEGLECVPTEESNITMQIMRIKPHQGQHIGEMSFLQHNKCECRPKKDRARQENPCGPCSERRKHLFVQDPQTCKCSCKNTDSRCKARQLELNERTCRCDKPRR

B1: pY0192 VL W96A (Fab, V domains shown)
VH: EVQLVESGGGLVQPGGSLRLSCAASGYTFTNYGINWVRQAPGKGLEWVGWINTYTGEPTYAADFKRRFTFSLDTSKSTAYLQMNSLRAEDTAVYYCAKYPHYYGSSHWYFDVWGQGTL
VL: DIQLTQSPSSLSASVGDRVTITCRANEQLSNYLNWYQQKPGKAPKVLIYFTSSLHSGVPSRFSGSGSGTDFTLTISSLQPEDFATYYCQQYSTVPATFGQGTKVEIKR
B1: the IC50 (mut)/IC50 (wt) was greater than 150.

B2: pY0192 VH Y32A (Fab, V domains shown)
VH: B1 VH with Y32A
VL: B1 VL with A96W
With B2, the IC50 (mut)/IC50 (wt) was greater than 150.

B3: pY0192 VH Y99A (Fab, V domains shown)
VH: B1 VH with Y99A
VL: B1 VL with A96W
Molecule B3 displayed an IC50 (mut)/IC50 (wt) greater than 150.

B4: pY0192 VH N31A (Fab, V domains shown)
VH: B1 VH with N31A
VL: B1 VL with A96W
B4: the IC50 (mut)/IC50 (wt) is greater than 150.

B5: pY0192 VH W50A (Fab, V domains shown)
VH: B1 VH with W50A
VL: B1 VL with A96W
B5 showed an IC50 (mut)/IC50 (wt) greater than 150.

B6: pY0192 VH N52A (Fab, V domains shown)
VH: B1 VH with N52A
VL: B1 VL with A96W
In the case of B6, the IC50 (mut)/IC50 (wt) was greater than 150.

B7: pY0192 VH S106A (Fab, V domains shown)
VH: B1 VH with S106A
VL: B1 VL with A96W
In turn, B7 gave an IC50 (mut)/IC50 (wt) greater than 150.

B8: pY0192 VH W108A (Fab, V domains shown)
VH: B1 VH with W108A
VL: B1 VL with A96W
On to B8, for which the IC50 (mut)/IC50 (wt) was greater than 150.

B9: pY0192 VH F110A (Fab, V domains shown)
VH: B1 VH with F110A
VL: B1 VL with A96W
notes: Ala-scan variant of pY0192; Fab on phage
On to B9, for which the “IC50 (mut)/IC50 (wt)” value was determined as 25 ratio.

B10: pY0192 VH T28A (Fab, V domains shown)
VH: B1 VH with T28A
VL: B1 VL with A96W
notes: as for B9
For B10, the “IC50 (mut)/IC50 (wt)” value amounted to 1 ratio.

B11: pY0192 VH I51A (Fab, V domains shown)
VH: B1 VH with I51A
VL: B1 VL with A96W
notes: as for B9
On to B11, for which the “IC50 (mut)/IC50 (wt)” value was found to be 4 ratio.

B12: pY0192 VH H101A (Fab, V domains shown)
VH: B1 VH with H101A
VL: B1 VL with A96W
notes: as for B9
Consider B12, for which the “IC50 (mut)/IC50 (wt)” value turned out to be 4 ratio.

B13: pY0192 VH N35A (Fab, V domains shown)
VH: B1 VH with N35A
VL: B1 VL with A96W
notes: as for B9
B13: the “IC50 (mut)/IC50 (wt)” value was found to be 66 ratio.

B14: pY0192 VH E57A (Fab, V domains shown)
VH: B1 VH with E57A
VL: B1 VL with A96W
notes: as for B9
In the case of B14, the “IC50 (mut)/IC50 (wt)” value worked out at 2 ratio.

B15: pY0192 VH Y109A (Fab, V domains shown)
VH: B1 VH with Y109A
VL: B1 VL with A96W
notes: as for B9
Take B15: the “IC50 (mut)/IC50 (wt)” value came to 19 ratio.

B16: pY0192 VH T55A (Fab, V domains shown)
VH: B1 VH with T55A
VL: B1 VL with A96W
notes: as for B9
In the case of B16, the “IC50 (mut)/IC50 (wt)” value came out at 4 ratio.

B17: pY0192 VH K65A (Fab, V domains shown)
VH: B1 VH with K65A
VL: B1 VL with A96W
notes: as for B9
B17: the “IC50 (mut)/IC50 (wt)” value came to 1 ratio.

B18: pY0192 VH D63A (Fab, V domains shown)
VH: B1 VH with D63A
VL: B1 VL with A96W
notes: as for B9
For B18, the “IC50 (mut)/IC50 (wt)” value amounted to 1 ratio.

B19: pY0192 VH Y27A (Fab, V domains shown)
VH: B1 VH with Y27A
VL: B1 VL with A96W
notes: as for B9
B19: the “IC50 (mut)/IC50 (wt)” value stood at 34 ratio.

B20: pY0192 VH H107A (Fab, V domains shown)
VH: B1 VH with H107A
VL: B1 VL with A96W
notes: as for B9
With B20, the “IC50 (mut)/IC50 (wt)” value was determined as 2 ratio.

B21: pY0192 VH G56A (Fab, V domains shown)
VH: B1 VH with G56A
VL: B1 VL with A96W
notes: as for B9
As to B21, the “IC50 (mut)/IC50 (wt)” value was found to be 1 ratio.

B22: pY0192 VH G104A (Fab, V domains shown)
VH: B1 VH with G104A
VL: B1 VL with A96W
notes: as for B9
For B22, the “IC50 (mut)/IC50 (wt)” value stood at 2 ratio.

B23: pY0192 VH Y103A (Fab, V domains shown)
VH: B1 VH with Y103A
VL: B1 VL with A96W
notes: as for B9
Turning to B23, the “IC50 (mut)/IC50 (wt)” value was 5 ratio.

B24: pY0192 VH G26A (Fab, V domains shown)
VH: B1 VH with G26A
VL: B1 VL with A96W
notes: as for B9
Turning to B24, the “IC50 (mut)/IC50 (wt)” value is 2 ratio.

B25: pY0192 VH P58A (Fab, V domains shown)
VH: B1 VH with P58A
VL: B1 VL with A96W
notes: as for B9
For the molecule B25, the “IC50 (mut)/IC50 (wt)” value was determined as 1 ratio.

B26: pY0192 VH T30A (Fab, V domains shown)
VH: B1 VH with T30A
VL: B1 VL with A96W
notes: as for B9
Consider B26, for which the “IC50 (mut)/IC50 (wt)” value came out at 1 ratio.

B27: pY0192 VH R66A (Fab, V domains shown)
VH: B1 VH with R66A
VL: B1 VL with A96W
notes: as for B9
In the case of B27, the “IC50 (mut)/IC50 (wt)” value was found to be 1 ratio.

B28: pY0192 VH G33A (Fab, V domains shown)
VH: B1 VH with G33A
VL: B1 VL with A96W
notes: as for B9
In the case of B28, the “IC50 (mut)/IC50 (wt)” value was 6 ratio.

B29: pY0192 VH S105A (Fab, V domains shown)
VH: B1 VH with S105A
VL: B1 VL with A96W
notes: as for B9
In the case of B29, the “IC50 (mut)/IC50 (wt)” value is 1 ratio.

B30: pY0192 VH F64A (Fab, V domains shown)
VH: B1 VH with F64A
VL: B1 VL with A96W
notes: as for B9
Regarding B30, the “IC50 (mut)/IC50 (wt)” value came to 1 ratio.

B31: pY0192 VH A62S (Fab, V domains shown)
VH: B1 VH with A62S
VL: B1 VL with A96W
notes: as for B9
For the molecule B31, the “IC50 (mut)/IC50 (wt)” value worked out at 1 ratio.

B32: pY0192 VH P100A (Fab, V domains shown)
VH: B1 VH with P100A
VL: B1 VL with A96W
notes: Ala-scan variant of pY0192; Fab on phage; also called P1OOA
On to B32, for which the “IC50 (mut)/IC50 (wt)” value worked out at 38 ratio.

B33: pY0192 VH T53A (Fab, V domains shown)
VH: B1 VH with T53A
VL: B1 VL with A96W
notes: as for B9
In the case of B33, the “IC50 (mut)/IC50 (wt)” value amounted to 9 ratio.

B34: pY0192 VH I34A (Fab, V domains shown)
VH: B1 VH with I34A
VL: B1 VL with A96W
notes: as for B9
Regarding B34, the “IC50 (mut)/IC50 (wt)” value stood at 6 ratio.

B35: pY0192 VH D111A (Fab, V domains shown)
VH: B1 VH with D111A
VL: B1 VL with A96W
notes: as for B9
For B35, the “IC50 (mut)/IC50 (wt)” value worked out at 2 ratio.

B36: pY0192 VH Y102A (Fab, V domains shown)
VH: B1 VH with Y102A
VL: B1 VL with A96W
notes: as for B9
With B36, the “IC50 (mut)/IC50 (wt)” value stood at 4 ratio.

B37: pY0192 VH Y60A (Fab, V domains shown)
VH: B1 VH with Y60A
VL: B1 VL with A96W
notes: as for B9
For B37, the “IC50 (mut)/IC50 (wt)” value amounted to 2 ratio.

B38: pY0192 VH T59A (Fab, V domains shown)
VH: B1 VH with T59A
VL: B1 VL with A96W
notes: as for B9
Regarding B38, the “IC50 (mut)/IC50 (wt)” value stood at 3 ratio.

B39: pY0192 VH Y54A (Fab, V domains shown)
VH: B1 VH with Y54A
VL: B1 VL with A96W
notes: as for B9
As for B39, the “IC50 (mut)/IC50 (wt)” value stood at 9 ratio.

B40: pY0192 VH A61S (Fab, V domains shown)
VH: B1 VH with A61S
VL: B1 VL with A96W
notes: as for B9
With B40, the “IC50 (mut)/IC50 (wt)” value worked out at 1 ratio.

B41: pY0192 VH F29A (Fab, V domains shown)
VH: B1 VH with F29A
VL: B1 VL with A96W
notes: as for B9
As for B41, the “IC50 (mut)/IC50 (wt)” value is 16 ratio.
